Test results taken from publication PMC13086964 (Nature Communications, 2026).
Values belong to the binder of their own block, whether it stands above or below them.

Key:
[1] = molecular target: T1, purified recombinant His-USP7, full-length (human, UniProt Q93009 1-1102); test: pull-down; GST-FAN1-NTD on Glutathione Sepharose beads, 0.5 µg recombinant His-USP7, 1 h at 4 °C in PBS-1% Triton; washes with 300 mM NaCl; immunoblotting; details: both partners purified
T1 construct: human USP7, recombinant, full-length; also called human recombinant USP7; source: bought: R&D Systems (# E-519)
T1 sequence (Q93009 whole entry): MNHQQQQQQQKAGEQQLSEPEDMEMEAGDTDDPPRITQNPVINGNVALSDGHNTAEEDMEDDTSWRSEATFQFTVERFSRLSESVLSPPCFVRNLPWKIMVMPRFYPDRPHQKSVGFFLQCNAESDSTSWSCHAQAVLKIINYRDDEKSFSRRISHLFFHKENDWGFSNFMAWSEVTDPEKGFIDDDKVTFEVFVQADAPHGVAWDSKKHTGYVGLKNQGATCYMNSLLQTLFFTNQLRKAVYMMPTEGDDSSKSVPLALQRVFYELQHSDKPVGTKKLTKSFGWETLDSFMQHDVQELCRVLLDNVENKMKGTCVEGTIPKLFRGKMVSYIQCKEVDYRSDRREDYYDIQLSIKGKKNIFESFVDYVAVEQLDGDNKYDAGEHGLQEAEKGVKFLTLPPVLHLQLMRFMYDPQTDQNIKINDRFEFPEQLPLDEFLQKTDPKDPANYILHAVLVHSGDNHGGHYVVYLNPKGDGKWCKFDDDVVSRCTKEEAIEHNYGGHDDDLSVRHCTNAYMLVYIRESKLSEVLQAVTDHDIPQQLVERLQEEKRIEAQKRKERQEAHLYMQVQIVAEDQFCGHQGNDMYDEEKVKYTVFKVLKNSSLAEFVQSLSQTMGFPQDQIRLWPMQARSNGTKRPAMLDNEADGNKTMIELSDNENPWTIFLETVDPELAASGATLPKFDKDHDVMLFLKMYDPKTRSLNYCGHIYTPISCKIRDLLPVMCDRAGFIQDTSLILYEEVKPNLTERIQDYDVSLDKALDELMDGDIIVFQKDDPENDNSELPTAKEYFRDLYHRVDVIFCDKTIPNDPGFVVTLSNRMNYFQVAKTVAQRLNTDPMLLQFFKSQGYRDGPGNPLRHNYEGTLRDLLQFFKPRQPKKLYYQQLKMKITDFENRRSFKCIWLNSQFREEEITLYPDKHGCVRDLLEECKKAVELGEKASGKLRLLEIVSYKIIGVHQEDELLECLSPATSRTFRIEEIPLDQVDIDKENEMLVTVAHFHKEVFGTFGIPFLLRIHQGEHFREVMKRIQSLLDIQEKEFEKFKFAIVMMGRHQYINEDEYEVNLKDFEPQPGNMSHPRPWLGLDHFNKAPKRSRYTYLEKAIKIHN

[2] = molecular target: T2, recombinant full length His6-MBP-FAN1-His6 (human, UniProt Q9Y2M0 1-1017); test: pull-down; in vitro streptavidin pull-down with recombinant biotin-tagged USP7 TRAF-like or UBL domains and MBP-His-tagged FAN1 (Figure S3A); details: both partners purified
T2 construct: human FAN1, full length; Tag ends are read from the printed name His6-MBP-FAN1-His6; also called MBP-His-tagged FAN1; recombinant human FAN1; source: E. coli BL21, purified (HisTrap, MBPTrap, desalting); not shown: His6, N-terminal, kept; MBP, N-terminal, kept; His6, C-terminal, kept
T2 sequence (looked up): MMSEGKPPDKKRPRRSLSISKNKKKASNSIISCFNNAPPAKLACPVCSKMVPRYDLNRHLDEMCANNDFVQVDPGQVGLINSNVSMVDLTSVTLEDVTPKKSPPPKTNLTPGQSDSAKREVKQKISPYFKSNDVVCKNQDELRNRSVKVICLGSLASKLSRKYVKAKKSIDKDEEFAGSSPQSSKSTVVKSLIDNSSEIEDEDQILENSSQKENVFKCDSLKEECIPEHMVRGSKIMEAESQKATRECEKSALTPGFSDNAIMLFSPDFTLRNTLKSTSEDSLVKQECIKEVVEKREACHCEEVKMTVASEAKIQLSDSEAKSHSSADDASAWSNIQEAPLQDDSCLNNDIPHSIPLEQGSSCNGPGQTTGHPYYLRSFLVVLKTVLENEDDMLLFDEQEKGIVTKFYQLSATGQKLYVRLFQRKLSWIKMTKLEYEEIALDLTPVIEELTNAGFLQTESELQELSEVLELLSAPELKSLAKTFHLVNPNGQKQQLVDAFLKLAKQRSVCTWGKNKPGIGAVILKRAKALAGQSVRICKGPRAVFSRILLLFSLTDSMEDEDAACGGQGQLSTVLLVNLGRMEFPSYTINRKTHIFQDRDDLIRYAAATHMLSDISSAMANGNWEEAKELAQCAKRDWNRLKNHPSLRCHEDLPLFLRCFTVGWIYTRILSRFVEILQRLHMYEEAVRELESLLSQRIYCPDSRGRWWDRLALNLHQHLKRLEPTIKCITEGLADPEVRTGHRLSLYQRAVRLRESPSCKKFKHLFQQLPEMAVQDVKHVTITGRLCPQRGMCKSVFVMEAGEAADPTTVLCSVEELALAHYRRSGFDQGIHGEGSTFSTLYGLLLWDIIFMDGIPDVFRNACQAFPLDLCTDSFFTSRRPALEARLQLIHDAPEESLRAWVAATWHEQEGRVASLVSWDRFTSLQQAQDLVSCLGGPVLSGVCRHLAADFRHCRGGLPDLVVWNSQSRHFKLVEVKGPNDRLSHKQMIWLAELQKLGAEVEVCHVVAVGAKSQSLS

- binding result [1]: binds
B1: GST-FAN1-NTD (aa 1-372) (domain or fragment, human, UniProt Q9Y2M0 1-372, looked up)
chain: MMSEGKPPDKKRPRRSLSISKNKKKASNSIISCFNNAPPAKLACPVCSKMVPRYDLNRHLDEMCANNDFVQVDPGQVGLINSNVSMVDLTSVTLEDVTPKKSPPPKTNLTPGQSDSAKREVKQKISPYFKSNDVVCKNQDELRNRSVKVICLGSLASKLSRKYVKAKKSIDKDEEFAGSSPQSSKSTVVKSLIDNSSEIEDEDQILENSSQKENVFKCDSLKEECIPEHMVRGSKIMEAESQKATRECEKSALTPGFSDNAIMLFSPDFTLRNTLKSTSEDSLVKQECIKEVVEKREACHCEEVKMTVASEAKIQLSDSEAKSHSSADDASAWSNIQEAPLQDDSCLNNDIPHSIPLEQGSSCNGPGQTTGH
notes: also called GST-tagged FAN1; source: E. coli BL21-CodonPlus RIL, purified from soluble extracts on Glutathione Sepharose beads

- binding result [2]: binds
B2: USP7 UBL domain (residues 520-1067), biotinylated (domain or fragment, human, UniProt Q93009 520-1067, looked up)
chain: RESKLSEVLQAVTDHDIPQQLVERLQEEKRIEAQKRKERQEAHLYMQVQIVAEDQFCGHQGNDMYDEEKVKYTVFKVLKNSSLAEFVQSLSQTMGFPQDQIRLWPMQARSNGTKRPAMLDNEADGNKTMIELSDNENPWTIFLETVDPELAASGATLPKFDKDHDVMLFLKMYDPKTRSLNYCGHIYTPISCKIRDLLPVMCDRAGFIQDTSLILYEEVKPNLTERIQDYDVSLDKALDELMDGDIIVFQKDDPENDNSELPTAKEYFRDLYHRVDVIFCDKTIPNDPGFVVTLSNRMNYFQVAKTVAQRLNTDPMLLQFFKSQGYRDGPGNPLRHNYEGTLRDLLQFFKPRQPKKLYYQQLKMKITDFENRRSFKCIWLNSQFREEEITLYPDKHGCVRDLLEECKKAVELGEKASGKLRLLEIVSYKIIGVHQEDELLECLSPATSRTFRIEEIPLDQVDIDKENEMLVTVAHFHKEVFGTFGIPFLLRIHQGEHFREVMKRIQSLLDIQEKEFEKFKFAIVMMGRHQYINEDEYEVNLKDFEPQP
modifications: biotin (on the AviTag)
notes: human USP7 UBL domain, residues 520-1067; p28BIOH-LIC vector; also called USP7 UBL domains; source: E. coli BL21(DE3)-pBirAcm, purified (TALON, SEC); not shown: AviTag, N-terminal, kept
